# Source: paper PMC8450086, “Cooperative DNA binding mediated by KicGAS/ORF52 oligomerization allows inhibition of DNA-induced phase separation and activation of cGAS”
# B1: ssHSV60 (ssDNA)
# DNA: TAAGACACGATGCGATAAAATCTGTTTGTAAAATTTATTAAGGGTACAAATT
# B2: HSV60 (dsDNA)
# DNA 1: B1 DNA
# DNA 2: AATTTGTACCCTTAATAAATTTTACAAACAGATTTTATCGCATCGTGTCTTA
# B3: ISD45 (dsDNA)
# DNA 1: TACAGATCTACTAGTGATCTATGACTGATCTGTACATGATCTACA
# DNA 2: TGTAGATCATGTACAGATCAGTCATAGATCACTAGTAGATCTGTA
# B4: DNA-RNA hybrid 45 (DNA:RNA)
# RNA: UACAGAUCUACUAGUGAUCUAUGACUGAUCUGUACAUGAUCUACA
# DNA: B3 DNA 2
# B5: KS90 (dsDNA)
# DNA 1: TCGTCTCGCCTGTCAAATCGTCTATGTTTTTCGGCGCGTTGTGCCAATATAACTCTAGAAACTAATACTGTATCTGTCAGCAGTACTACA
# DNA 2: TGTAGTACTGCTGACAGATACAGTATTAGTTTCTAGAGTTATATTGGCACAACGCGCCGAAAAACATAGACGATTTGACAGGCGAGACGA
# B6: ssKS90 (ssDNA)
# DNA: B5 DNA 1
# B7: ISD25 (dsDNA)
# DNA 1: CTAGTGATCTATGACTGATCTGTAC
# DNA 2: GTACAGATCAGTCATAGATCACTAG
# B8: 0% GC (dsDNA)
# DNA 1: ATTTAATAATAATTTATTAT
# DNA 2: ATAATAAATTATTATTAAAT
# B9: ISD30 (dsDNA)
# DNA 1: ATCTACTAGTGATCTATGACTGATCTGTAC
# DNA 2: GTACAGATCAGTCATAGATCACTAGTAGAT
# B10: ISD20 (dsDNA)
# DNA 1: ATCTATGACTGATCTGTACA
# DNA 2: TGTACAGATCAGTCATAGAT
# B11: ISD12 (dsDNA)
# DNA 1: ACTGATCTGTAC
# DNA 2: GTACAGATCAGT
# B12: ssVACV72 (ssDNA)
# DNA: ATCCATCAGAAAGAGGTTTAATATTTTTGTGAGACCATCGAAGAGAGAAAGAGATAAAACTTTTTTACGACT
# B13: VACV72 (dsDNA)
# DNA 1: B12 DNA
# DNA 2: AGTCGTAAAAAAGTTTTATCTCTTTCTCTCTTCGATGGTCTCACAAAAATATTAAACCTCTTTCTGATGGAT
# B14: dsRNA45 (dsRNA)
# RNA 1: B4 RNA
# RNA 2: UGUAGAUCAUGUACAGAUCAGUCAUAGAUCACUAGUAGAUCUGUA
# B15: 90% GC (dsDNA)
# DNA 1: CCGCCAGCCCGCGGGCTGGC
# DNA 2: GCCAGCCCGCGGGCTGGCGG
# B16: 30% GC (dsDNA)
# DNA 1: ATATCGCTATAGATATCATC
# DNA 2: GATGATATCTATAGCGATAT
# What was measured:
# [1] = target: T1, KicGAS (Kaposi sarcoma-associated herpesvirus …, UniProt Q2HR80 1-131); assay: fluorescence polarization; Hill n 2.15; EMSA: 20 mM Tris-HCl pH 7.4, 150 mM NaCl, 10% glycerol, on ice, 20 nM FAM-DNA, gel at 4 C; FP: 400 pg/ul FAM-DNA, buffer and temperature not stated; Hill fits; details: protein: recombinant; tags: Avi-His6-SUMO removed (tag-free); label: 5' FAM
# T1 sequence: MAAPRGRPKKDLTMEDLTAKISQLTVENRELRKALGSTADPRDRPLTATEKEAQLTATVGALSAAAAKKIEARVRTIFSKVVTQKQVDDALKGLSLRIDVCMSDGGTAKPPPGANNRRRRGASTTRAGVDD
# [2] = target: T1, KicGAS; assay: fluorescence polarization; Hill n 2.24; EMSA: 20 mM Tris-HCl pH 7.4, 150 mM NaCl, 10% glycerol, on ice, 20 nM FAM-DNA, gel at 4 C; FP: 400 pg/ul FAM-DNA, buffer and temperature not stated; Hill fits; details: protein: recombinant, tags: Avi-His6-SUMO removed (tag-free)
# [3] = target: T1, KicGAS; assay: EMSA; Hill n 2.20; EMSA: 20 mM Tris-HCl pH 7.4, 150 mM NaCl, 10% glycerol, on ice, 20 nM FAM-DNA, gel at 4 C; FP: 400 pg/ul FAM-DNA, buffer and temperature not stated; Hill fits; details: protein: recombinant; tags: Avi-His6-SUMO removed (tag-free); label: 5' FAM sense strand; blunt
# [4] = target: T1, KicGAS; assay: fluorescence polarization; Hill n 2.1; EMSA: 20 mM Tris-HCl pH 7.4, 150 mM NaCl, 10% glycerol, on ice, 20 nM FAM-DNA, gel at 4 C; FP: 400 pg/ul FAM-DNA, buffer and temperature not stated; Hill fits; details: protein: recombinant; tags: Avi-His6-SUMO removed (tag-free); label: 5' FAM sense strand; blunt
# [5] = target: T1, KicGAS; assay: fluorescence polarization; Hill n 1.85; EMSA: 20 mM Tris-HCl pH 7.4, 150 mM NaCl, 10% glycerol, on ice, 20 nM FAM-DNA, gel at 4 C; FP: 400 pg/ul FAM-DNA, buffer and temperature not stated; Hill fits; details: protein: recombinant, tags: Avi-His6-SUMO removed (tag-free)
# [6] = target: T1, KicGAS; assay: fluorescence polarization; Hill n 1.33; EMSA: 20 mM Tris-HCl pH 7.4, 150 mM NaCl, 10% glycerol, on ice, 20 nM FAM-DNA, gel at 4 C; FP: 400 pg/ul FAM-DNA, buffer and temperature not stated; Hill fits; details: protein: recombinant; tags: Avi-His6-SUMO removed (tag-free); label: 5' FAM
# [7] = target: T1, KicGAS; assay: fluorescence polarization; Hill n 2.55; EMSA: 20 mM Tris-HCl pH 7.4, 150 mM NaCl, 10% glycerol, on ice, 20 nM FAM-DNA, gel at 4 C; FP: 400 pg/ul FAM-DNA, buffer and temperature not stated; Hill fits; details: protein: recombinant; tags: Avi-His6-SUMO removed (tag-free); label: 5' FAM sense strand; blunt
# [8] = target: T1, KicGAS; assay: EMSA; Hill n 1.95; EMSA: 20 mM Tris-HCl pH 7.4, 150 mM NaCl, 10% glycerol, on ice, 20 nM FAM-DNA, gel at 4 C; FP: 400 pg/ul FAM-DNA, buffer and temperature not stated; Hill fits; details: protein: recombinant; tags: Avi-His6-SUMO removed (tag-free); label: 5' FAM sense strand; blunt
# [9] = target: T1, KicGAS; assay: fluorescence polarization; Hill n 1.84; EMSA: 20 mM Tris-HCl pH 7.4, 150 mM NaCl, 10% glycerol, on ice, 20 nM FAM-DNA, gel at 4 C; FP: 400 pg/ul FAM-DNA, buffer and temperature not stated; Hill fits; details: protein: recombinant; tags: Avi-His6-SUMO removed (tag-free); label: 5' FAM sense strand; blunt
# [10] = target: T1, KicGAS; assay: fluorescence polarization; Hill n 2.33; EMSA: 20 mM Tris-HCl pH 7.4, 150 mM NaCl, 10% glycerol, on ice, 20 nM FAM-DNA, gel at 4 C; FP: 400 pg/ul FAM-DNA, buffer and temperature not stated; Hill fits; details: protein: recombinant; tags: Avi-His6-SUMO removed (tag-free); label: 5' FAM sense strand; blunt
# [11] = target: T1, KicGAS; assay: fluorescence polarization; Hill n 1.88; EMSA: 20 mM Tris-HCl pH 7.4, 150 mM NaCl, 10% glycerol, on ice, 20 nM FAM-DNA, gel at 4 C; FP: 400 pg/ul FAM-DNA, buffer and temperature not stated; Hill fits; details: protein: recombinant; tags: Avi-His6-SUMO removed (tag-free); label: 5' FAM sense strand; blunt
# [12] = target: T1, KicGAS; assay: fluorescence polarization; Hill n 1.70; EMSA: 20 mM Tris-HCl pH 7.4, 150 mM NaCl, 10% glycerol, on ice, 20 nM FAM-DNA, gel at 4 C; FP: 400 pg/ul FAM-DNA, buffer and temperature not stated; Hill fits; details: protein: recombinant; tags: Avi-His6-SUMO removed (tag-free); label: 5' FAM sense strand; blunt
# [13] = target: T1, KicGAS; assay: fluorescence polarization; EMSA: 20 mM Tris-HCl pH 7.4, 150 mM NaCl, 10% glycerol, on ice, 20 nM FAM-DNA, gel at 4 C; FP: 400 pg/ul FAM-DNA, buffer and temperature not stated; Hill fits; details: protein: recombinant; tags: Avi-His6-SUMO removed (tag-free); label: 5' FAM sense strand; blunt
# [14] = target: T1, KicGAS; assay: fluorescence polarization; Hill n 2.21; EMSA: 20 mM Tris-HCl pH 7.4, 150 mM NaCl, 10% glycerol, on ice, 20 nM FAM-DNA, gel at 4 C; FP: 400 pg/ul FAM-DNA, buffer and temperature not stated; Hill fits; details: protein: recombinant; tags: Avi-His6-SUMO removed (tag-free); label: 5' FAM
# [15] = target: T1, KicGAS; assay: fluorescence polarization; Hill n 2.36; EMSA: 20 mM Tris-HCl pH 7.4, 150 mM NaCl, 10% glycerol, on ice, 20 nM FAM-DNA, gel at 4 C; FP: 400 pg/ul FAM-DNA, buffer and temperature not stated; Hill fits; details: protein: recombinant; tags: Avi-His6-SUMO removed (tag-free); label: 5' FAM sense strand; blunt
# [16] = target: T1, KicGAS; assay: fluorescence polarization; Hill n 1.69; EMSA: 20 mM Tris-HCl pH 7.4, 150 mM NaCl, 10% glycerol, on ice, 20 nM FAM-DNA, gel at 4 C; FP: 400 pg/ul FAM-DNA, buffer and temperature not stated; Hill fits; details: protein: recombinant; tags: Avi-His6-SUMO removed (tag-free); label: 5' FAM sense strand; blunt
# [17] = target: T1, KicGAS; assay: fluorescence polarization; Hill n 2.05; EMSA: 20 mM Tris-HCl pH 7.4, 150 mM NaCl, 10% glycerol, on ice, 20 nM FAM-DNA, gel at 4 C; FP: 400 pg/ul FAM-DNA, buffer and temperature not stated; Hill fits; details: protein: recombinant; tags: Avi-His6-SUMO removed (tag-free); label: 5' FAM sense strand; blunt
# [18] = target: T1, KicGAS; assay: fluorescence polarization; Hill n 2.31; EMSA: 20 mM Tris-HCl pH 7.4, 150 mM NaCl, 10% glycerol, on ice, 20 nM FAM-DNA, gel at 4 C; FP: 400 pg/ul FAM-DNA, buffer and temperature not stated; Hill fits; details: protein: recombinant; tags: Avi-His6-SUMO removed (tag-free); label: 5' FAM sense strand; blunt
# [19] = target: T1, KicGAS; assay: fluorescence polarization; Hill n 1.50; EMSA: 20 mM Tris-HCl pH 7.4, 150 mM NaCl, 10% glycerol, on ice, 20 nM FAM-DNA, gel at 4 C; FP: 400 pg/ul FAM-DNA, buffer and temperature not stated; Hill fits; details: protein: recombinant; tags: Avi-His6-SUMO removed (tag-free); label: 5' FAM
# [20] = target: T1, KicGAS; assay: fluorescence polarization; Hill n 0.90; EMSA: 20 mM Tris-HCl pH 7.4, 150 mM NaCl, 10% glycerol, on ice, 20 nM FAM-DNA, gel at 4 C; FP: 400 pg/ul FAM-DNA, buffer and temperature not stated; Hill fits; details: protein: recombinant; tags: Avi-His6-SUMO removed (tag-free); label: 5' FAM
binder,measurement,setting,value
B1,Kd,[1],170 ± 10 nM
B2,Kd,"[2]; label: 5' FAM sense strand, blunt",160 ± 10 nM
B3,Kd,[3],120 ± 10 nM
same,Kd,[4],150 ± 20 nM
TACAGATCTACTAGTGATCTATGACTGATCTGTACATGATCTACA (ssDNA) [ssISD45],Kd,[5]; label: 5' FAM,260 ± 10 nM
B4,Kd,"[5]; label: 5' FAM sense strand (RNA), blunt",300 ± 20 nM
CTAGTGATCTATGACTGATCTGTAC (ssDNA) [ssISD25],Kd,[6],1580 ± 220 nM
B5,Kd,[7],100 ± 10 nM
B6,Kd,[2]; label: 5' FAM,100 ± 10 nM
B7,Kd,[8],380 ± 30 nM
same,Kd,[9],440 ± 30 nM
B8,Kd,[10],800 ± 50 nM
B9,Kd,[11],290 ± 20 nM
B10,Kd,[12],820 ± 80 nM
B11,binding result,[13],no binding
B12,Kd,[14],130 ± 10 nM
B13,Kd,[15],130 ± 10 nM
B14,Kd,[16],560 ± 50 nM
B15,Kd,[17],1160 ± 80 nM
B16,Kd,[18],1070 ± 60 nM
ATCTACTAGTGATCTATGACTGATCTGTAC (ssDNA) [ssISD30],Kd,[19],720 ± 50 nM
ATCTATGACTGATCTGTACA (ssDNA) [ssISD20],Kd,[20],5.08 ± 0.4 µM
